Among the data in publication PMC9671113 are stoichiometry N values, retold here.

The target of experiment [1] is trimeric pre-fusion SARS-CoV-2 spike glycoprotein (pre-S) (SARS-CoV-2 (Wuhan-Hu-1 strain) | Phage T4) (UniProt P0DTC2). Briefly: SEC.
Experiment [2] has the same target. Nature of the experiment: negative-stain electron microscopy (called Cryo-EM by the paper).

Consider “trimeric pre-fusion SARS-CoV-2 spike glycoprotein (pre-S) (from UniProt P0DTC2 14-1201) (domain or fragment)”, for which the stoichiometry N in experiment [1] and in experiment [2] was 3 in each case.
